Data published in paper PMC4419837, “Purification and characterization of DR_2577 (SlpA) a major S-layer protein from Deinococcus radiodurans” (Frontiers in Microbiology, 2015).
“And” between values parts separate entries of the source, which are not always exact repeats. Equal entries are not always repeated.

Experiments:
[1] = target: the molecule itself; assay: native gel or EMSA; BN-PAGE, 3-12% gradient gel, 205 V for 5 h at 4°C, about 0.1 ug protein from the main SEC peak; mass estimated against NativeMARK; hexamer
[2] = target: the molecule itself; assay: SDS-PAGE; standard denaturation: Rotiload, not boiled and not treated with tris-2-carboxy-ethylphosphine; polyacrylamide/urea gel; mass estimated against prestained standard; dimer

B1: DR_2577 (SlpA), major S-layer protein from Deinococcus radiodurans (natural protein, UniProt Q9RRB6 23-1167, looked up)
chain: APVSAPQVPALTDVPAGHWAKDAIDRLVSRGVILGYPDGTFRGTQNLTRYEAAIIIARLLDQMRDGETPAGMTAEDMTALQNAIQELAADLAALGVRVSDLEANAVSKDDFARLEARIEEVAAAGGEQGATEALQGQIDDLTARVDEYDALRADVDDNASSIAALNDLTVLLNQDILDLQDRVSAVEAAQADFVQRSDFDALGGRVTTVETRVETVNNSLTGRIAALERNAFSVKPSLTIGYSVSRTSRNFDVDRLFPLNADGTVANNAFTSGGIDTDTGAQRRDFGDFGNASDPVVAGAAGLYGFADGVSYTVYFTDGSTATFDGLNPADYKVPTGKVIDTTKGRNGFGFNNLARYKEGSTDIGISLGFDTSGQFSQVTSGTGGSLFSTAGRLQVNQIDLNFGLVTGLPSDAYVDTNGNGKKDDGEATGRGTYLGSGGTAAILRDPAGNVYRPVFFRFKNATTQFSVGNNPVIVTLGQQQKFYFSDYVFDNNYDGRGDGFTVTVDGSNVPVIGAWKPQIKGVYGSRSGLDGTAEAGYGVYYRGVRAQITPVGTLTAGIHYAQEGRDMFGAAQNTTSTPSDVTTYGADLHGKAFGVELHSEYATSRVRPNTANAAVQTSNAFYARVATRKDNLAFDLNTPAAKFGNDTFGVSLYDLNYRKIDAGYNNVAGISEYGYGSYSRTSAQNIAYNPDTGVTAPFANLDRQAYTDANNDGTSDRNADGTVVATNTKIGQMGFGVKAAANLGPVAIGGYYDTSTGANGDNANRMTEAGGSAKVAYSIFSLRGTYNTLDSNRPQIYRDAAGTQIIGDAKVRRYAVQADVTPGLGLFVGAYYRDVNVNGVRSTTDRGLLGRGYLASSFEPGVGNNAYRTGLRCADNNFGTGTRDIDGVGGVLNPAVNLDQSRTATCFTSYGVEAGHAGDNANALVKDLFFRVGYSRVYVPTTATATTGDFSGSVTYGDARYDRKVGVANVRLAGSFSTTNTQLDSRPAGTRGAVGLIVRTDPLENVPFRPQFNGQVGYYTADNRVAAGNYNANATKYGAGVVLNDFLLPQTKIGVRYDGYMAQNRQYTPFDGDGTQGYFSDANNNRRTNLNGVYVEGAYQDLIFSYGTYTLSQKDLNGVEYGSGINNGQPARGQTFKISYKVNF
notes: DR_2577 (SlpA), S-layer protein of Deinococcus radiodurans R1; cysteines at residues 896 and 929; Native protein isolated from the bacterium; It infers that the dimers are held by an intermolecular disulfide bond, and only a computer prediction assigns that bond to Cys929
[1]
  stoichiometry N: 6.22 and 5.95
[2]
  stoichiometry N: 2.25 and 2.17
